Paper PMC11790970

What was measured:
[1] = molecular target: Asp85 (UniProt position 98, WARYADWLFTT); conditions: cited from earlier work
[2] = test system: Asp97; conditions: cited from earlier work
[3] = molecular target: actinorhodopsin from Rhodoluna lacicola strain MWH-Ta8 (Rhodoluna lacicola strain MWH-Ta8); test: cryo-EM structure; single particle analysis, 2D classification, 4 Å projection structure from 53,376 particles; protein purified in 0.25% (w/v) Cymal-5, 2.5 mg/mL
[4] = molecular target: actinorhodopsin from Rhodoluna lacicola strain MWH-Ta8 (Rhodoluna lacicola strain MWH-Ta8); test: SEC; Superdex 200 Increase 10/300 GL; 20 mM BTP-HCl pH 7.5, 150 mM NaCl, 0.25% (w/v) Cymal-5; sample at about 0.75-1.5 mg/mL; column calibrated with molecular weight markers
[5] = molecular target: Asp92 (position 92, …); test: UV-vis; conditions: not stated (pH adjusted at room temperature), 150 mM NaCl plus 100 mM acetate buffer, with residual HEPES-NaOH from a 5 mM stock diluted 5-fold, Detergent-solubilised, retinal-bound oligomeric RlActR at 0.2 mg/mL, whether the sample was light- or dark-adapted is not stated

In the case of “Bacteriorhodopsin (BR) (Halobacterium salinarum)”, the pKa [1] is given as “∼2.6”.

In the case of “Green-light absorbing proteorhodopsin (GPR) (uncultured marine gamma-proteobacterium)”, the pKa [2] is given as “∼7.5”.

“actinorhodopsin from Rhodoluna lacicola strain MWH-Ta8 (natural protein)” showed a stoichiometry N [3] of 5 and a stoichiometry N [4] of 5.

B1: Actinorhodopsin RlActR (Rhodoluna lacicola (strain MWH-Ta8)) (protein)
chain: MNTLSNALDNGQFNLVYNILSLGIASMLFTAIFLFVARERVLPRYRIAVMVSATVTAIAAYHYFRMFDNFSHAFAGAENNPDAYNVGYRYVDWLLTVPLLLVELVAVLALAKAAQSSILNRLVPAAAAMIVLGYPGDAKLDIWGIAPSVWGLLSTIPFLYILYVLFIELGKSLSRQSEAVQKKVKILRLLLIATWGVYPITFILAMGTPPGAPFNASEFVAREVGYSIADILAKCLFGLIIYSIARIKSAEDDKEFAKAEFKDALEGHHHHH
Molecule B1 has a pKa [5] of 5.6.
